Non-standard residues stand in square brackets, D forms with d. *: point of attachment. Biotin = O=C1N[C@H]2[C@H](CS[C@H]2CCCCC(=O)*)N1; Ahx = NCCCCCC(=O)O; βAla = NCCC(=O)O
Legend:
[1] = biological target: T1, HIV‐1 envelope glycoprotein gp120, strain HxBc2 (HIV-1 strain HxBc2, UniProt P04578 33-511); experiment: ELISA; gp120 HxBc2 coated (1.4 μg/mL, 0.1 M phosphate buffer pH 7.4, overnight 4°C), blocked with Ficoll 400; biotinylated peptide in serial threefold dilutions from 400 nM, overnight 4°C; detected with anti-biotin peroxidase; conditions: both partners purified
[2] = biological target: T1, HIV‐1 envelope glycoprotein gp120, …; experiment: cell-based or functional assay

Binder | EC50 [1] [nM] | neutralisation of HIV-1 NL4-3 infection, SEAP reporter CEMx174 cells, IC50 [2] [nM]
Ac-GYRFSNFVIHWG[βAla]G[Ahx]GK(Biotin)G[Ahx]SVGPYSWDDSPQDNYMDS-NH2 (not fully specified; printed as Ac‐GYRFSNFVIHW‐GBGXG‐K*‐GX‐SVGPYSWDDSPQDNYMDS‐NH_2_) [H1H3s] | 6.46 ± 1.5 | 6300
Ac-G[dY][dR][dF][dS][dN][dF][dV][dI][dH][dW]G[βAla]G[Ahx]G[dK](Biotin)G[Ahx][dS][dV]G[dP][dY][dS][dW][dD][dD][dS][dP][dQ][dD][dN][dY][dM][dD][dS]-NH2 (SMILES CC[C@@H](C)[C@@H](NC(=O)[C@H](NC(=O)[C@@H](Cc1ccccc1)NC(=O)[C@@H](CC(N)=O)NC(=O)[C@@H](CO)NC(=O)[C@@H](Cc1ccccc1)NC(=O)[C@@H](CCCNC(=N)N)NC(=O)[C@@H](Cc1ccc(O)cc1)NC(=O)CNC(C)=O)C(C)C)C(=O)N[C@H](Cc1c[nH]cn1)C(=O)N[C@H](Cc1c[nH]c2ccccc12)C(=O)NCC(=O)NCCC(=O)NCC(=O)NCCCCCC(=O)NCC(=O)N[C@H](CCCCNC(=O)CCCC[C@@H]1SC[C@@H]2NC(=O)N[C@@H]21)C(=O)NCC(=O)NCCCCCC(=O)N[C@H](CO)C(=O)N[C@@H](C(=O)NCC(=O)N1CCC[C@@H]1C(=O)N[C@H](Cc1ccc(O)cc1)C(=O)N[C@H](CO)C(=O)N[C@H](Cc1c[nH]c2ccccc12)C(=O)N[C@H](CC(=O)O)C(=O)N[C@H](CC(=O)O)C(=O)N[C@H](CO)C(=O)N1CCC[C@@H]1C(=O)N[C@H](CCC(N)=O)C(=O)N[C@H](CC(=O)O)C(=O)N[C@H](CC(N)=O)C(=O)N[C@H](Cc1ccc(O)cc1)C(=O)N[C@H](CCSC)C(=O)N[C@H](CC(=O)O)C(=O)N[C@H](CO)C(N)=O)C(C)C) [H1H3s‐allD] | – | 1900
Ac-GYKFSNFVIHWG[βAla]G[Ahx]GK(Biotin)G[Ahx]SVGPYSWDDSPQDNYMDS-NH2 (not fully specified; printed as Ac‐GYKFSNFVIHW‐GBGXG‐K*‐GX‐SVGPYSWDDSPQDNYMDS‐NH_2_) [H1H3s‐R28K] | 7.86 ± 1.35 | –
